From US9176064B2, “Bisubstrate fluorescent probes for protein kinase CK2” (University of Tartu, priority 2012, dated 2015)
Where a SMILES comes first, the peptide text is derived from it. [ ]: non-standard residue; d: D form. The star is where a group is joined. X1 = O=C(CCCCCCCn1cnc2c(Br)c(Br)c(Br)c(Br)c21)*

Legend:
Assay in all cases: Kinase panel residual activity
Assay type in all cases: biochemical
Conditions in all cases: compound at 1 micromolar
FGF-R1 = FGF-R1 (Homo sapiens, UniProt P11362)
FGF-R1, sequence (P11362 22-822, species assumed): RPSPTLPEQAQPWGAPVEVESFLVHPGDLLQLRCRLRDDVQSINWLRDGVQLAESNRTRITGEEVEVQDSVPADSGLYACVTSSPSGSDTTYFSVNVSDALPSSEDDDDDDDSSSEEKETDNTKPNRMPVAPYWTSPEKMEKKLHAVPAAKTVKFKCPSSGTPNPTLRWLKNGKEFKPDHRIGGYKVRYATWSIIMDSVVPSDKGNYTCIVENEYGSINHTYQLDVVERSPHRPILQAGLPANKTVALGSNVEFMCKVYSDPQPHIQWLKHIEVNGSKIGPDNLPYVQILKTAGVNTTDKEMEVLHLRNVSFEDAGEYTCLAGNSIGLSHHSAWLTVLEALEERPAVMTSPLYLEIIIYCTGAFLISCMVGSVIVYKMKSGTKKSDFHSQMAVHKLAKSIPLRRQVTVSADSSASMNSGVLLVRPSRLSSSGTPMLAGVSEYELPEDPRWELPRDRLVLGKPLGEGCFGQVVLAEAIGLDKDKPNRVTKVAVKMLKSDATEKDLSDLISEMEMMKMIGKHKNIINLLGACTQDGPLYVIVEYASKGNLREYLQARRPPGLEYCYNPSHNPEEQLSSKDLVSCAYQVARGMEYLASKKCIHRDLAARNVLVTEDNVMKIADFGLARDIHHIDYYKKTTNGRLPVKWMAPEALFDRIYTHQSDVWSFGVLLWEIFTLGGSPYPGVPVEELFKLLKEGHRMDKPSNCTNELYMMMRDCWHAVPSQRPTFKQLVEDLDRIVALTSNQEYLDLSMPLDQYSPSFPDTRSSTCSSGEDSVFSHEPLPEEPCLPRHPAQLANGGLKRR

MST3 = MST3 (Homo sapiens, UniProt Q9Y6E0)
MST3, sequence (Q9Y6E0 whole entry, species assumed): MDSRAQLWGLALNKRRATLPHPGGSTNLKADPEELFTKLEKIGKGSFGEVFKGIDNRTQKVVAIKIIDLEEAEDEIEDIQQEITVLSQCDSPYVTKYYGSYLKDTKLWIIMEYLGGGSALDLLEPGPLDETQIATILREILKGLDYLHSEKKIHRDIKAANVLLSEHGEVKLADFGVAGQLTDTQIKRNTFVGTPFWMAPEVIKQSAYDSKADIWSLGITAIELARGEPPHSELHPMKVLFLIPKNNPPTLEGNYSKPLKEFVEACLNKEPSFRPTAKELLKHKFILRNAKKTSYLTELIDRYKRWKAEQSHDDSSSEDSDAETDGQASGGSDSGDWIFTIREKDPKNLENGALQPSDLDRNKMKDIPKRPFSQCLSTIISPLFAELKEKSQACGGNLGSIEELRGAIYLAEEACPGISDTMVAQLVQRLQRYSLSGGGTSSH

MEKK1 = MEKK1 (Homo sapiens, UniProt Q13233)
MEKK1, sequence (Q13233 whole entry, species assumed): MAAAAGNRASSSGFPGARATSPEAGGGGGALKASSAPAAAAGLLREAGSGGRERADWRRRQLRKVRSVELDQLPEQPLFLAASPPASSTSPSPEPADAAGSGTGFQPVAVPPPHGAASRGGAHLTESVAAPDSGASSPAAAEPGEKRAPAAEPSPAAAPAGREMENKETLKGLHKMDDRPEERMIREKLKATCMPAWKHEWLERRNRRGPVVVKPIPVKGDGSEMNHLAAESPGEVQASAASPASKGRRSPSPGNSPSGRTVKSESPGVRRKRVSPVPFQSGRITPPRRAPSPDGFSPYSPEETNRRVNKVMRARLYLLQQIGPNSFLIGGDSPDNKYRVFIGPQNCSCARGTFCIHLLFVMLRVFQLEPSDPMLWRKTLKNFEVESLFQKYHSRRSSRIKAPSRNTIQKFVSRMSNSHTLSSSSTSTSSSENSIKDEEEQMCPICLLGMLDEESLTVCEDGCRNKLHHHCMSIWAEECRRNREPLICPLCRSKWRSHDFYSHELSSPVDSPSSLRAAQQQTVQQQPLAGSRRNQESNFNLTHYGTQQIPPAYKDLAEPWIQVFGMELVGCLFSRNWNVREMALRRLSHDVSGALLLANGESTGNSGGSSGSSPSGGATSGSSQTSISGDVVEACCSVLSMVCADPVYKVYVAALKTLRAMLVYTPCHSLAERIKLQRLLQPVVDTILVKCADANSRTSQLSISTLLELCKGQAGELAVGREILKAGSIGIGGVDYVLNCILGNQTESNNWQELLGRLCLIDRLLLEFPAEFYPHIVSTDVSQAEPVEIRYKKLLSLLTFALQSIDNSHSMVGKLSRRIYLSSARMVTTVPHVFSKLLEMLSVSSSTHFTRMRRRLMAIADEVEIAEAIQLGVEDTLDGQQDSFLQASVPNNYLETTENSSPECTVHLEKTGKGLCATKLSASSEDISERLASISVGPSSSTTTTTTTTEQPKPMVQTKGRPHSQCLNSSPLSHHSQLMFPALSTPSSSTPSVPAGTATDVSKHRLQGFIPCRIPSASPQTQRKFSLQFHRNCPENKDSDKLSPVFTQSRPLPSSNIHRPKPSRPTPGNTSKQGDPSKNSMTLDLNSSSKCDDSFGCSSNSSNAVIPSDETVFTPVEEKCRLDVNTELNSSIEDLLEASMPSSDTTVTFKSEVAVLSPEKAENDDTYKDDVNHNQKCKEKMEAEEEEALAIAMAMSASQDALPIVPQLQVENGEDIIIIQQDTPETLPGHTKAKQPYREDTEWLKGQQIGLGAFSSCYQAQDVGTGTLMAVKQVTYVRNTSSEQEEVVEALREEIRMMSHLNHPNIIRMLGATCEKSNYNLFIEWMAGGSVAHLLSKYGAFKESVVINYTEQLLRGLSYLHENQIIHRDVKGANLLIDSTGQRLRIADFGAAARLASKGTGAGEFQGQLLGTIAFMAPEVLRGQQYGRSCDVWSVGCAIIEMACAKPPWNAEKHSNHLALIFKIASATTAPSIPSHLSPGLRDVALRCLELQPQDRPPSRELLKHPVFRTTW

ERK8 = biological target: T1, ERK8 (Homo sapiens, UniProt Q8TD08)
T1 sequence (Q8TD08 1-544): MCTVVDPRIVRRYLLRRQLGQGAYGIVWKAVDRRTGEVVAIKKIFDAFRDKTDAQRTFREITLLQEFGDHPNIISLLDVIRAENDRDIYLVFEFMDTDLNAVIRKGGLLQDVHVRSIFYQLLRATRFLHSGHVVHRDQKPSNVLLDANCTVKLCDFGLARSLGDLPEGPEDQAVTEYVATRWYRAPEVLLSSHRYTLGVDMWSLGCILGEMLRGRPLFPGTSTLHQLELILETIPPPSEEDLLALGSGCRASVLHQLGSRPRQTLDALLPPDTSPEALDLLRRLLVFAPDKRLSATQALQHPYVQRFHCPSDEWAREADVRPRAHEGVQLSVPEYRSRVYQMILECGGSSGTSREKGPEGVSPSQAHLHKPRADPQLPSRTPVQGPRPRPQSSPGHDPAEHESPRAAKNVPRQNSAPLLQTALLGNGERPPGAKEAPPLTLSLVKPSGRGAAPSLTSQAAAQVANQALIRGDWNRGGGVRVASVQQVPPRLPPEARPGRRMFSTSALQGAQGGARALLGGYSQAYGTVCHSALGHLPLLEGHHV

PAK6 = PAK6 (Homo sapiens, UniProt Q9NQU5)
PAK6, sequence (Q9NQU5 whole entry, species assumed): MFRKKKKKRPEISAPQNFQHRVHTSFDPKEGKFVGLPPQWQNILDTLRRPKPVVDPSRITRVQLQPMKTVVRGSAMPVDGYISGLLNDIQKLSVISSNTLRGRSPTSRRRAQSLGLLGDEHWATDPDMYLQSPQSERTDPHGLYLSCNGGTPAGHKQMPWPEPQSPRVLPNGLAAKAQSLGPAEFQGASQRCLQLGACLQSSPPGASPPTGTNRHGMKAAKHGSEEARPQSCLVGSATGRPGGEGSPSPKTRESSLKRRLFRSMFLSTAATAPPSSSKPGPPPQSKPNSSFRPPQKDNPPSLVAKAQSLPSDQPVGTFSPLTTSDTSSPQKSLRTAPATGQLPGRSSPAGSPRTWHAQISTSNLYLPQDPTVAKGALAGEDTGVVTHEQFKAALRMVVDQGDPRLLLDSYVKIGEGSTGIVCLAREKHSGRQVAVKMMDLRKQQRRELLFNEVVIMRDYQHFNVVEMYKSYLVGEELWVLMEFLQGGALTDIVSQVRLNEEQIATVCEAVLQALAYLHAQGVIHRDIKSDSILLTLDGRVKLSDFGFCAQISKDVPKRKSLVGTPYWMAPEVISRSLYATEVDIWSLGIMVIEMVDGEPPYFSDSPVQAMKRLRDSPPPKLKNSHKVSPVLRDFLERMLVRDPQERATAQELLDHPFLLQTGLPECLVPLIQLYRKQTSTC

TGFBR1 = biological target: T2, TGFBR1 (Homo sapiens, UniProt P36897)
T2 sequence (P36897 34-503): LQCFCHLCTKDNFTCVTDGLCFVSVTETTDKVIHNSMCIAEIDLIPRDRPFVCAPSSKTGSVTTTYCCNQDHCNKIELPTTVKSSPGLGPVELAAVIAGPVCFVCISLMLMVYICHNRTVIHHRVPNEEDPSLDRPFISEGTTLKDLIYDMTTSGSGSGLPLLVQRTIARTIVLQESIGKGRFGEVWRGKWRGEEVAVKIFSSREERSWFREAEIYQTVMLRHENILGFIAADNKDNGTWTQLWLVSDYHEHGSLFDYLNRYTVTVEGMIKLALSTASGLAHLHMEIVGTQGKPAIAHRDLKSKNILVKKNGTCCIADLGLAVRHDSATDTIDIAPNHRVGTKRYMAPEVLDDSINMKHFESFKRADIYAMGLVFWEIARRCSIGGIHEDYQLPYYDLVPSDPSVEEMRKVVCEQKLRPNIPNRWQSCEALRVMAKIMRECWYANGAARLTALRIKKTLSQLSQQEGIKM

p38g MAPK = biological target: T3, p38g MAPK (Homo sapiens, UniProt P53778)
T3 sequence (P53778 1-367): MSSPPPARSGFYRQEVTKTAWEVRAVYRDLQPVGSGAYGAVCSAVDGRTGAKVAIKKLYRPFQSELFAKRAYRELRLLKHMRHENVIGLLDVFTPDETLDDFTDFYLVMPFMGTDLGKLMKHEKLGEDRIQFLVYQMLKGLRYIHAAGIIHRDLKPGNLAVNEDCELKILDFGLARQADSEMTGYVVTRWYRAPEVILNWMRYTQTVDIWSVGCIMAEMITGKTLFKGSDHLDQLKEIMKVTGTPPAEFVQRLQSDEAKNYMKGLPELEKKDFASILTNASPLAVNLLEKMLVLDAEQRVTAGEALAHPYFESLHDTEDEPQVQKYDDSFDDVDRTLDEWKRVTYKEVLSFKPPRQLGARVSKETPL

PKD1 = biological target: T4, PKD1 (Homo sapiens, UniProt Q15139)
T4 sequence (Q15139 1-912): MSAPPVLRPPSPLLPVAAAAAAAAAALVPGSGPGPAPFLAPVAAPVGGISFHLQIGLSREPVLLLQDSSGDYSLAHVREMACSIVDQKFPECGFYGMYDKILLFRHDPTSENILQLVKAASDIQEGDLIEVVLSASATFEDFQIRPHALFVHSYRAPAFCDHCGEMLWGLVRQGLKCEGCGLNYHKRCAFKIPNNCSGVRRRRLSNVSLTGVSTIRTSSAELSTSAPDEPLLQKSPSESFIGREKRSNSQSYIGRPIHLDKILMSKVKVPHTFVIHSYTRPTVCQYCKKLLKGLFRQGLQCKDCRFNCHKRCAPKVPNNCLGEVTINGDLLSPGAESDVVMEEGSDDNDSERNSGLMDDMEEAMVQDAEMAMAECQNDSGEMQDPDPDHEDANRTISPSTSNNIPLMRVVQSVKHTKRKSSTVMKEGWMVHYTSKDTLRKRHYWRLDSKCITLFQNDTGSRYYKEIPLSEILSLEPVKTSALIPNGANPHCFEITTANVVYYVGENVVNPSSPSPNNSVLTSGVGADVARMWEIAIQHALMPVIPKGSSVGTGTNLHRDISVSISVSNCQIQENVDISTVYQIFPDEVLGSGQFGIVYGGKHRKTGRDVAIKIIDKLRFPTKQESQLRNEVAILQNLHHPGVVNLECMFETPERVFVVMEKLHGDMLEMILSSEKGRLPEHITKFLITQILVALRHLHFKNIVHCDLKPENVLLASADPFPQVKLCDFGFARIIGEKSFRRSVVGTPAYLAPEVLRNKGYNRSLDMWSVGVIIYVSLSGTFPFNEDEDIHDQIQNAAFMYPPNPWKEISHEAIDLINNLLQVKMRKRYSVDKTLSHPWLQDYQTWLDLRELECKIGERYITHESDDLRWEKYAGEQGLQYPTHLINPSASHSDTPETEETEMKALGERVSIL

In the case of `NCCCC[C@H](NC(=O)[C@H](CC(=O)O)NC(=O)[C@H](CC(=O)O)NC(=O)[C@H](CC(=O)O)NC(=O)[C@H](CC(=O)O)NC(=O)[C@H](CC(=O)O)NC(=O)[C@@H](CC(=O)O)NC(=O)CCCCCCCn1cnc2c(Br)c(Br)c(Br)c(Br)c21)C(=O)O` [TBBI-OcA-(D-Asp)-(L-Asp)5-(L-Lys)-OH] (X1-[dD]DDDDDK-OH), the remaining activity at 1 µM (FGF-R1) is reported as 110%, the remaining activity at 1 µM (MST3) is reported as 100% and the remaining activity at 1 µM (MEKK1) is reported as 95%. It also gave a remaining activity at 1 µM (ERK8) of 25%, a remaining activity at 1 µM (PAK6) of 86% and a remaining activity at 1 µM (TGFBR1) of 98%. For the same compound, the remaining activity at 1 µM (p38g MAPK) was 97% and the remaining activity at 1 µM (PKD1) was 72%.
